Source: paper PMC10397247
Each block holds one binder with its values, some of them ahead of it.

Assays:
[1] = molecular target: T1, APC8191-AA; experiment: two-hybrid library CCmax; conditions: mean of both orientations;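 also: natural log of median RNA to DNA barcode read ratio; higher means stronger binding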
T1 chain: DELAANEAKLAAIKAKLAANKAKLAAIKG

[2] = molecular target: T2, APC6108-AA; experiment: two-hybrid library CCmax; conditions: mean of both orientations;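 also: natural log of median RNA to DNA barcode read ratio; higher means stronger binding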
T2 chain: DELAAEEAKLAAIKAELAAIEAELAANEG

[3] = molecular target: T3, APC9319-AA; experiment: two-hybrid library CCmax; conditions: mean of both orientations;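 also: natural log of median RNA to DNA barcode read ratio; higher means stronger binding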
T3 chain: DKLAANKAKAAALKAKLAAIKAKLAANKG

[4] = molecular target: T4, APC4264-AA; experiment: two-hybrid library CCmax; conditions: mean of both orientations;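 also: natural log of median RNA to DNA barcode read ratio; higher means stronger binding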
T4 chain: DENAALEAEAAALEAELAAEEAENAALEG

[5] = molecular target: T5, APC3645-AA; experiment: two-hybrid library CCmax;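 also: natural log of median RNA to DNA barcode read ratio; higher means stronger binding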
T5 chain: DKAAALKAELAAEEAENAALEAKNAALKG

[6] = molecular target: T6, APC5383-AA; experiment: two-hybrid library CCmax; conditions: mean of both orientations;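 also: natural log of median RNA to DNA barcode read ratio; higher means stronger binding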
T6 chain: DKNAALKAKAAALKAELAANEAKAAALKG

[7] = molecular target: T7, APC8910-AA; experiment: two-hybrid library CCmax; conditions: mean of both orientations
T7 chain: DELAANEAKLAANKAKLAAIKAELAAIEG

[8] = molecular target: T8, APC4436-AA; experiment: two-hybrid library CCmax; conditions: mean of both orientations
T8 chain: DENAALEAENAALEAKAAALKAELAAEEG

[9] = molecular target: T9, APC7099-AA; experiment: two-hybrid library CCmax; conditions: mean of both orientations
T9 chain: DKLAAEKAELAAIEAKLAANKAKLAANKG

[10] = molecular target: T10, APC4011-AA; experiment: two-hybrid library CCmax; conditions: mean of both orientations
T10 chain: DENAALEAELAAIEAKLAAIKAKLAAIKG

[11] = molecular target: T11, APC9096-AA; experiment: two-hybrid library CCmax; conditions: mean of both orientations
T11 chain: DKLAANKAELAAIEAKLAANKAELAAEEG

[12] = molecular target: T12, 4H349-bA; experiment: two-hybrid library CCNG1
T12 chain: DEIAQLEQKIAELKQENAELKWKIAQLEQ

[13] = molecular target: T13, 4H3297-bA; experiment: two-hybrid library CCNG1
T13 chain: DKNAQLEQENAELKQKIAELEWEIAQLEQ

[14] = molecular target: T14, 4H3364-bA; experiment: two-hybrid library CCNG1
T14 chain: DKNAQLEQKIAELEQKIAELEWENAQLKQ

[15] = molecular target: T15, 4H949-bA; experiment: two-hybrid library CCNG1
T15 chain: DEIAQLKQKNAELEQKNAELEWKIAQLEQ

[16] = molecular target: T16, 4H932-bA; experiment: two-hybrid library CCNG1
T16 chain: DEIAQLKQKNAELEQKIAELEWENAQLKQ

[17] = molecular target: T17, 4H3381-bA; experiment: two-hybrid library CCNG1
T17 chain: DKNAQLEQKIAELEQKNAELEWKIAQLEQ

[18] = molecular target: T18, 4H56-bA; experiment: two-hybrid library CCNG1
T18 chain: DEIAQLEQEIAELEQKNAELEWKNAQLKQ

[19] = molecular target: T19, 4H796-bA; experiment: two-hybrid library CCNG1
T19 chain: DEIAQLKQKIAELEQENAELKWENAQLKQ

[20] = molecular target: T20, 4H730-bA; experiment: two-hybrid library CCNG1
T20 chain: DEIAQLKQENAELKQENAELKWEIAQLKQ

[21] = molecular target: T21, P7; experiment: two-hybrid library CC1
T21 chain: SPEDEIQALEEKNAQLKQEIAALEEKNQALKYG

[22] = molecular target: T22, P8; experiment: two-hybrid library CC1; conditions: mean of both orientations
T22 chain: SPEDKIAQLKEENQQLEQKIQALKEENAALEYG

[23] = molecular target: T23, P9; experiment: two-hybrid library CC1; conditions: mean of both orientations
T23 chain: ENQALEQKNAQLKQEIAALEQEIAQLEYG

[24] = molecular target: T24, P7mS; experiment: two-hybrid library CC1; conditions: mean of both orientations
T24 chain: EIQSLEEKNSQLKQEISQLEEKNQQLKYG

[25] = molecular target: T25, P8mS; experiment: two-hybrid library CC1; conditions: mean of both orientations
T25 chain: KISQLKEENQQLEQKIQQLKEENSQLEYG

[26] = molecular target: T26, 4H3277-bH; experiment: two-hybrid library CCNG1
T26 chain: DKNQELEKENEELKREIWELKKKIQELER

[27] = molecular target: T27, 4H477-bH; experiment: two-hybrid library CCNG1
T27 chain: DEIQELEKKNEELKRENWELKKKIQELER

[28] = molecular target: T28, 4H741-bH; experiment: two-hybrid library CCNG1
T28 chain: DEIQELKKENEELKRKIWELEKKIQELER

[29] = molecular target: T29, 4H40-bH; experiment: two-hybrid library CCNG1
T29 chain: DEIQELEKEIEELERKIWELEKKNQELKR

[30] = molecular target: T30, 4H348-bH; experiment: two-hybrid library CCNG1
T30 chain: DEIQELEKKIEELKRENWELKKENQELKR

[31] = molecular target: T31, 4H319-bH; experiment: two-hybrid library CCNG1
T31 chain: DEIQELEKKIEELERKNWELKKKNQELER

[32] = molecular target: T32, 4H492-bH; experiment: two-hybrid library CCNG1
T32 chain: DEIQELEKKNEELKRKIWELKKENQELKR

interaction score [1]: -1.7
interaction score [2]: -1.68
interaction score [3]: -1.55
interaction score [4]: -1.56
interaction score [5]: -1.12
interaction score [6]: -1.51
interaction score [7]: -1.79
interaction score [8]: -2.1
interaction score [9]: -1.63
interaction score [10]: -1.34
interaction score [11]: -1.71
B1: APC3645-AA (peptide)
chain: DKAAALKAELAAEEAENAALEAKNAALKG

interaction score [12]: -1.15
interaction score [13]: 1.19
interaction score [14]: -0.887
interaction score [15]: -0.949
interaction score [16]: -0.454
interaction score [17]: -0.995
interaction score [18]: -0.874
interaction score [19]: -1.18
interaction score [20]: -0.992
B2: 4H3297-bA (peptide)
chain: DKNAQLEQENAELKQKIAELEWEIAQLEQ

B3: P7 (peptide)
chain: SPEDEIQALEEKNAQLKQEIAALEEKNQALKYG
interaction score [21]: -2.29
interaction score [22]: 0.391
interaction score [23]: -2.07
interaction score [24]: -2.52
interaction score [25]: 0.223

interaction score [26]: -0.168
interaction score [27]: -0.71
interaction score [28]: 0.321
interaction score [29]: -2.01
interaction score [30]: 0.143
interaction score [31]: 1.04
interaction score [32]: -0.172
B4: 4H319-bH (peptide)
chain: DEIQELEKKIEELERKNWELKKKNQELER
